According to patent publication US11111484B2, “Streptococcus bacteriophage lysins for detection and treatment of gram positive bacteria” (priority 2011, dated 2021):

Key:
Test in all cases: ΔPlySs1 OD600 lysis, 1 hr, optimal buffering conditions
Format in all cases: cell-based, Streptococcus suis
S. suis 10 (ST2) = tested on: S. suis 10 (ST2)
Description: (§1) Truncated PlySs1(ΔPlySs1) lysin activity was determined against different cell types. Given the above experiments, the following optimal buffering conditions were employed for all further in vitro experiments with ΔPlySs1: 20 mM phosphate buffer, pH=7.8, 2 mM EDTA. A range of lysin concentrations, from 6.5-130 μg/ml, were introduced to live S. suis cells in this buffer. Three strains were considered particularly relevant: 7711, the serotype 7 strain that encodes PlySs1; S735, the serotype 2 reference strain; and 7997, a highly virulent serotype 9 strain. In terms of bacterial viability, only the highest PlySs1-concentration (130 μg/ml) led to a >90% decrease in CFUs for 7711, S735, and 7997 after 1 hr treatment (TABLE 2). The lysin was also tested against actively-dividing cells in broth culture (strain 7711) (FIG. 20).
(§2) ΔPlySs1 was further tested against a panel of 19 other S. suis strains of diverse serotypes, as well as other species of Gram-positive bacteria. The same lysin concentrations were used as above. For each dosage, the observed lysis values after 1 hr are listed in TABLE 3 and TABLE 4, and the information is summarized graphically in FIG. 21.

S. suis 6112 (ST1) = tested on: S. suis 6112 (ST1)
Description: as §1, §2

S. suis 6388 (ST1) = tested on: S. suis 6388 (ST1)
Description: as §1, §2

S. suis 7197 (ST7) = tested on: S. suis 7197 (ST7)
Description: as §1, §2

S. suis 8076 (ST9) = tested on: S. suis 8076 (ST9)
Description: as §1, §2

S. suis ST10 = tested on: S. suis ST10
Description: as §1, §2

S. suis ST11 = tested on: S. suis ST11
Description: as §1, §2

S. suis ST13 = tested on: S. suis ST13
Description: as §1, §2

S. suis ST14 = tested on: S. suis ST14
Description: as §1, §2

S. suis ST1 = tested on: S. suis ST1
Description: as §1, §2

S. suis ST2 = tested on: S. suis ST2
Description: as §1, §2

S. suis ST3 = tested on: S. suis ST3
Description: as §1, §2

S. suis ST4 = tested on: S. suis ST4
Description: as §1, §2

S. suis ST5 = tested on: S. suis ST5
Description: as §1, §2

S. suis ST6 = tested on: S. suis ST6
Description: as §1, §2

S. suis ST7 = tested on: S. suis ST7
Description: as §1, §2

S. suis ST8 = tested on: S. suis ST8
Description: as §1, §2

S. suis ST9 = tested on: S. suis ST9
Description: as §1, §2

B1: ΔPlySs1: truncated PlySs1 lysin, SEQ ID NO:2, N-terminal 254 amino acids: only N-terminal enzymatic and central binding domains (protein, listed as Streptococcus suis)
chain: MTINLETSIRWMSDRVGKVSYSMDYRNGPNSYDCSSAVYYALMAGGAISAGWAVNTEYMHDWLIRNGYVLVAENKPFNAQRHDVCILGKRGYSSGAGGHVVIFVDNVNVIHCNYARNGISIDNYNQVHRGMYYYLYRPANQPSISNKSLDQLVKETLAGVHGNGDTRKASLGSQYEAVMAVINGKASASEKSDEELAREVLAGKHGAGEDRKRSLGPRYEPVQAKVNELLKAKEKPSETAKNEPQTVQFKEDGDL
1-hour treated/untreated OD600-ratio (S. suis 10 (ST2); 6.5 μg/ml): 0.29
1-hour treated/untreated OD600-ratio (S. suis 10 (ST2); 13 μg/ml): 0.18
1-hour treated/untreated OD600-ratio (S. suis 10 (ST2); 30 μg/ml): 0.10
1-hour treated/untreated OD600-ratio (S. suis 10 (ST2); 65 μg/ml): 0.05
1-hour treated/untreated OD600-ratio (S. suis 10 (ST2); 130 μg/ml): 0.02
1-hour treated/untreated OD600-ratio (S. suis 6112 (ST1); 6.5 μg/ml): 0.14
1-hour treated/untreated OD600-ratio (S. suis 6112 (ST1); 13 μg/ml): 0.11
1-hour treated/untreated OD600-ratio (S. suis 6112 (ST1); 30 μg/ml): 0.06
1-hour treated/untreated OD600-ratio (S. suis 6112 (ST1); 65 μg/ml): 0.02
1-hour treated/untreated OD600-ratio (S. suis 6112 (ST1); 130 μg/ml): 0.01
1-hour treated/untreated OD600-ratio (S. suis 6388 (ST1); 6.5 μg/ml): 0.15
1-hour treated/untreated OD600-ratio (S. suis 6388 (ST1); 13 μg/ml): 0.13
1-hour treated/untreated OD600-ratio (S. suis 6388 (ST1); 30 μg/ml): 0.06
1-hour treated/untreated OD600-ratio (S. suis 6388 (ST1); 65 μg/ml): 0.03
1-hour treated/untreated OD600-ratio (S. suis 6388 (ST1); 130 μg/ml): 0.02
1-hour treated/untreated OD600-ratio (S. suis 7197 (ST7); 6.5 μg/ml): 0.64
1-hour treated/untreated OD600-ratio (S. suis 7197 (ST7); 13 μg/ml): 0.49
1-hour treated/untreated OD600-ratio (S. suis 7197 (ST7); 30 μg/ml): 0.39
1-hour treated/untreated OD600-ratio (S. suis 7197 (ST7); 65 μg/ml): 0.16
1-hour treated/untreated OD600-ratio (S. suis 7197 (ST7); 130 μg/ml): 0.07
1-hour treated/untreated OD600-ratio (S. suis 8076 (ST9); 6.5 μg/ml): 0.52
1-hour treated/untreated OD600-ratio (S. suis 8076 (ST9); 13 μg/ml): 0.40
1-hour treated/untreated OD600-ratio (S. suis 8076 (ST9); 30 μg/ml): 0.21
1-hour treated/untreated OD600-ratio (S. suis 8076 (ST9); 65 μg/ml): 0.14
1-hour treated/untreated OD600-ratio (S. suis 8076 (ST9); 130 μg/ml): 0.04
1-hour treated/untreated OD600-ratio (S. suis ST10; 6.5 μg/ml): 0.85
1-hour treated/untreated OD600-ratio (S. suis ST10; 13 μg/ml): 0.72
1-hour treated/untreated OD600-ratio (S. suis ST10; 30 μg/ml): 0.55
1-hour treated/untreated OD600-ratio (S. suis ST10; 65 μg/ml): 0.44
1-hour treated/untreated OD600-ratio (S. suis ST10; 130 μg/ml): 0.28
1-hour treated/untreated OD600-ratio (S. suis ST11; 6.5 μg/ml): 0.64
1-hour treated/untreated OD600-ratio (S. suis ST11; 13 μg/ml): 0.47
1-hour treated/untreated OD600-ratio (S. suis ST11; 30 μg/ml): 0.32
1-hour treated/untreated OD600-ratio (S. suis ST11; 65 μg/ml): 0.19
1-hour treated/untreated OD600-ratio (S. suis ST11; 130 μg/ml): 0.07
1-hour treated/untreated OD600-ratio (S. suis ST13; 6.5 μg/ml): 0.32
1-hour treated/untreated OD600-ratio (S. suis ST13; 13 μg/ml): 0.17
1-hour treated/untreated OD600-ratio (S. suis ST13; 30 μg/ml): 0.04
1-hour treated/untreated OD600-ratio (S. suis ST13; 65 μg/ml): 0.02
1-hour treated/untreated OD600-ratio (S. suis ST13; 130 μg/ml): 0.02
1-hour treated/untreated OD600-ratio (S. suis ST14; 6.5 μg/ml): 0.79
1-hour treated/untreated OD600-ratio (S. suis ST14; 13 μg/ml): 0.57
1-hour treated/untreated OD600-ratio (S. suis ST14; 30 μg/ml): 0.33
1-hour treated/untreated OD600-ratio (S. suis ST14; 65 μg/ml): 0.15
1-hour treated/untreated OD600-ratio (S. suis ST14; 130 μg/ml): 0.06
1-hour treated/untreated OD600-ratio (S. suis ST1; 6.5 μg/ml): 0.80
1-hour treated/untreated OD600-ratio (S. suis ST1; 13 μg/ml): 0.34
1-hour treated/untreated OD600-ratio (S. suis ST1; 30 μg/ml): 0.36
1-hour treated/untreated OD600-ratio (S. suis ST1; 65 μg/ml): 0.19
1-hour treated/untreated OD600-ratio (S. suis ST1; 130 μg/ml): 0.06
1-hour treated/untreated OD600-ratio (S. suis ST2; 6.5 μg/ml): 0.79
1-hour treated/untreated OD600-ratio (S. suis ST2; 13 μg/ml): 0.70
1-hour treated/untreated OD600-ratio (S. suis ST2; 30 μg/ml): 0.49
1-hour treated/untreated OD600-ratio (S. suis ST2; 65 μg/ml): 0.34
1-hour treated/untreated OD600-ratio (S. suis ST2; 130 μg/ml): 0.17
1-hour treated/untreated OD600-ratio (S. suis ST3; 6.5 μg/ml): 0.81
1-hour treated/untreated OD600-ratio (S. suis ST3; 13 μg/ml): 0.71
1-hour treated/untreated OD600-ratio (S. suis ST3; 30 μg/ml): 0.48
1-hour treated/untreated OD600-ratio (S. suis ST3; 65 μg/ml): 0.32
1-hour treated/untreated OD600-ratio (S. suis ST3; 130 μg/ml): 0.16
1-hour treated/untreated OD600-ratio (S. suis ST4; 6.5 μg/ml): 0.63
1-hour treated/untreated OD600-ratio (S. suis ST4; 13 μg/ml): 0.47
1-hour treated/untreated OD600-ratio (S. suis ST4; 30 μg/ml): 0.32
1-hour treated/untreated OD600-ratio (S. suis ST4; 65 μg/ml): 0.22
1-hour treated/untreated OD600-ratio (S. suis ST4; 130 μg/ml): 0.12
1-hour treated/untreated OD600-ratio (S. suis ST5; 6.5 μg/ml): 0.78
1-hour treated/untreated OD600-ratio (S. suis ST5; 13 μg/ml): 0.59
1-hour treated/untreated OD600-ratio (S. suis ST5; 30 μg/ml): 0.39
1-hour treated/untreated OD600-ratio (S. suis ST5; 65 μg/ml): 0.22
1-hour treated/untreated OD600-ratio (S. suis ST5; 130 μg/ml): 0.10
1-hour treated/untreated OD600-ratio (S. suis ST6; 6.5 μg/ml): 0.76
1-hour treated/untreated OD600-ratio (S. suis ST6; 13 μg/ml): 0.56
1-hour treated/untreated OD600-ratio (S. suis ST6; 30 μg/ml): 0.40
1-hour treated/untreated OD600-ratio (S. suis ST6; 65 μg/ml): 0.21
1-hour treated/untreated OD600-ratio (S. suis ST6; 130 μg/ml): 0.06
1-hour treated/untreated OD600-ratio (S. suis ST7; 6.5 μg/ml): 0.65
1-hour treated/untreated OD600-ratio (S. suis ST7; 13 μg/ml): 0.47
1-hour treated/untreated OD600-ratio (S. suis ST7; 30 μg/ml): 0.34
1-hour treated/untreated OD600-ratio (S. suis ST7; 65 μg/ml): 0.22
1-hour treated/untreated OD600-ratio (S. suis ST7; 130 μg/ml): 0.11
1-hour treated/untreated OD600-ratio (S. suis ST8; 6.5 μg/ml): 0.25
1-hour treated/untreated OD600-ratio (S. suis ST8; 13 μg/ml): 0.12
1-hour treated/untreated OD600-ratio (S. suis ST8; 30 μg/ml): 0.06
1-hour treated/untreated OD600-ratio (S. suis ST8; 65 μg/ml): 0.03
1-hour treated/untreated OD600-ratio (S. suis ST8; 130 μg/ml): 0.03
1-hour treated/untreated OD600-ratio (S. suis ST9; 6.5 μg/ml): 0.50
1-hour treated/untreated OD600-ratio (S. suis ST9; 13 μg/ml): 0.30
1-hour treated/untreated OD600-ratio (S. suis ST9; 30 μg/ml): 0.23
1-hour treated/untreated OD600-ratio (S. suis ST9; 65 μg/ml): 0.13
1-hour treated/untreated OD600-ratio (S. suis ST9; 130 μg/ml): 0.05
